Laboratory results reported in publication PMC7396438.
Where “and” joins values, the source holds several entries; their conditions need not be identical. Equal values may be shown once.

How the values were obtained:
Test in all cases: cross-linking; in vivo photo-cross-linking in BamA mutant strains (chromosomal bamA replaced; pBpa at 64, at 132, or at both); blot with antibodies against SurA, bands quantified with ImageJ against nonspecific bands as internal control; repeated twice
[1] = biological target: BamA-R64&D132pBpa (E. coli) (UniProt P0A940)
BamA-R64pBpa (E. coli) = BamA-R64pBpa (E. coli) (UniProt P0A940)
BamA-D132pBpa (E. coli) = BamA-D132pBpa (E. coli) (UniProt P0A940)

Sequence of SurA (P0ABZ6 21-428): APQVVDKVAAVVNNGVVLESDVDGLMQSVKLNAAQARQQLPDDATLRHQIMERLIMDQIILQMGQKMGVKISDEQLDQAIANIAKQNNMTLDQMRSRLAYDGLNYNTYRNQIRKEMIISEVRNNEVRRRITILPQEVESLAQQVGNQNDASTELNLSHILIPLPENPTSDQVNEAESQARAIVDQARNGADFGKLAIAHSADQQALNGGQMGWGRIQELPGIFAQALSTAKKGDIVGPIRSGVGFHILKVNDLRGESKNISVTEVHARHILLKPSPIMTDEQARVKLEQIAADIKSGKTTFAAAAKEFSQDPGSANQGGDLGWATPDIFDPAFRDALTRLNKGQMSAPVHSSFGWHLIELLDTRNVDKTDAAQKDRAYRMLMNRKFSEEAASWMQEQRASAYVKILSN

For “SurA (from UniProt P0ABZ6 21-428) (natural protein)”, which amount of cross-linked product (ImageJ, against nonspecific bands) [1] is on record?
Its amount of cross-linked product (ImageJ, against nonspecific bands) is 1 and 1.02.

What about the stoichiometry N [1] of the same substance?
Its stoichiometry N is 1.

And the sum of the amounts of the two cross-linked products (ImageJ) [1]?
Its sum of the amounts of the two cross-linked products (ImageJ) is 2.02.

And the amount of cross-linked product (ImageJ, against nonspecific bands) (BamA-R64pBpa (E. coli))?
The amount of cross-linked product (ImageJ, against nonspecific bands) was 1.97.

And the amount of cross-linked product (ImageJ, against nonspecific bands) (BamA-D132pBpa (E. coli))?
The amount of cross-linked product (ImageJ, against nonspecific bands) was 2.12.
